# Reference: US20110038869A1 (Genmab, published 2011)
# Key:
# biotinylated CD32bECDHis [1] = target: T1, biotinylated CD32bECDHis (human, UniProt P31994 43-223, limits assumed, biotinylated (sites not given)); assay: competition ELISA, competitor 020
# T1 sequence (looked up): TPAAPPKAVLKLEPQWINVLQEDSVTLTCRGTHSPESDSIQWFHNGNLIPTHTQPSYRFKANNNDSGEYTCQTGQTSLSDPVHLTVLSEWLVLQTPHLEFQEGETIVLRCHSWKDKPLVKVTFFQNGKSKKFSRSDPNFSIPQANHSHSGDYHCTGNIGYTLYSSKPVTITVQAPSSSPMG
# Experimental: (§1) ELISA wells were coated overnight at 4° C. with anti-CD32b HuMabs serially diluted in PBS. The ELISA wells were washed with PBS, blocked for one hour at room temperature with 2% (v/v) chicken serum (Gibco, Paisley, Scotland) in PBS and washed again with PBS. Subsequently, the immobilized antibodies were incubated with biotinylated CD32bECDHis serially diluted in PBSTC. After washing with PBS/Tween, bound biotinylated CD32bECDHis was incubated with Streptavidin-poly-HRP (Sanquin, Amsterdam, The Netherlands) for 1 hr at RT an the reaction was developed as described supra.
# (§2) To this end, ELISA wells coated with anti-CD32b HuMabs were incubated in the presence of an excess of CD32b-specific antibody and the predetermined concentration of biotinylated CD32bECDHis in fluid phase. The reaction was developed as described.
# biotinylated CD32bECDHis [2] = target: T1, biotinylated CD32bECDHis; assay: competition ELISA, competitor 028
# Experimental: as §1, §2
# biotinylated CD32bECDHis [3] = target: T1, biotinylated CD32bECDHis; assay: competition ELISA, competitor 2B6
# Experimental: as §1, §2
# biotinylated CD32bECDHis [4] = target: T1, biotinylated CD32bECDHis; assay: competition ELISA, competitor 022
# Experimental: as §1, §2
# biotinylated CD32bECDHis [5] = target: T1, biotinylated CD32bECDHis; assay: competition ELISA, competitor 063
# Experimental: as §1, §2
# biotinylated CD32bECDHis [6] = target: T1, biotinylated CD32bECDHis; assay: competition ELISA, competitor 038
# Experimental: as §1, §2
# biotinylated CD32bECDHis [7] = target: T1, biotinylated CD32bECDHis; assay: competition ELISA, competitor 026
# Experimental: as §1, §2
# biotinylated CD32bECDHis [8] = target: T1, biotinylated CD32bECDHis; assay: competition ELISA, competitor 024
# Experimental: as §1, §2
# biotinylated CD32bECDHis [9] = target: T1, biotinylated CD32bECDHis; assay: competition ELISA, competitor 053
# Experimental: as §1, §2
# [10] = target: T2, full length CD32b2 on transfected IIA1.6 cells (human, UniProt P31994-2 43-291); assay: flow cytometry on IIA1.6-CD32b2 cells
# T2 construct: whole, on cells; also called IIA1.6-CD32b2
# T2 sequence (looked up): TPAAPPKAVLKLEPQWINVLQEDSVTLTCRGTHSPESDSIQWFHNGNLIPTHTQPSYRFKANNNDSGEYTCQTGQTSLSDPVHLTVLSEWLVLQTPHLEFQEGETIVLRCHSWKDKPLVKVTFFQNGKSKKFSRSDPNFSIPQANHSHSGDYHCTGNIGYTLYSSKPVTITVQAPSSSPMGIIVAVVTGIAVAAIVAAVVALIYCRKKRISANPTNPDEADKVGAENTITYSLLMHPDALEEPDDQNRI
# Experimental: After harvesting and counting, IIA1.6 cells stably transfected with full length CD32a and CD32b (van den Herik-Oudijk et al., 1994), control IIA1.6 cells and Daudi-luc cells were resuspended in PBS (1×10⁶ cells/ml). Cells were put in 96-well V-bottom plates (100 μl/well) and washed twice with FACS buffer (PBS supplemented with 0.1% BSA and 0.02% Na-azide). Thereafter, 50 μl of serially diluted HuMab in FACS buffer was added to the cells and incubated for 30 minutes at 4° C. After washing three times with FACS buffer, 50 μl of phycoerythrin (PE)-conjugated rabbit anti-human IgG (Jackson ImmunoResearch Europe), diluted 1:200 in FACS buffer, was added. After 30 minutes at 4° C. (in the dark), cells were washed three times, and specific binding of the HuMabs was detected by flow cytometry on a FACSCalibur (BD Biosciences). […] Binding curves were analyzed using non-linear regression (sigmoidal dose-response with variable slope) using GraphPad Prism V4.03 software (GraphPad Software, San Diego, Calif., USA).
# To analyze binding of anti-CD32b HuMabs to CD32b1 and CD32b2, IIA1.6 cells transfected with full length CD32b1 or CD32b2 (van den Herik-Oudijk et al., 1994) were prepared as described supra. The assay was performed as described supra. Flow cytometry was performed on a FACS Canto II (BD Biosciences).
# CD32bECDHis = target: T3, CD32bECDHis (human, UniProt P31994 43-223, limits assumed); assay: TR-FRET competition against HuMab-KLH-AlexaFluor 647 (N = 2)
# T3 construct: Produced in HEK-293F cells; also called extracellular domain of CD32b with C-terminal His tag; soluble CD32b
# T3 sequence (looked up): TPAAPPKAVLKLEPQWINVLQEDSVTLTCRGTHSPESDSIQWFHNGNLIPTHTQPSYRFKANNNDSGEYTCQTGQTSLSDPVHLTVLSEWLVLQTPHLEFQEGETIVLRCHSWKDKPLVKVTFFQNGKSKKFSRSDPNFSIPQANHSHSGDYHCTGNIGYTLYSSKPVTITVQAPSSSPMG
# Text: To study the interaction of anti-CD32b HuMabs with CD32b and CD32a in more detail TR-FRET technology was applied. To this end, CD32bECDHis and CD32aECDHis were labeled with a fluorescent donor molecule directed against the histidine tag (Anti-6×His Europium3+, PerkinElmer, Boston Mass.).
# Briefly, all dilutions were made in 0.5× Lance detection buffer (PerkinElmer, Boston Mass.) supplemented with 0.2% BSA (obtained via dilution of 7.5% BSA Stabilizer solution, cat: CR84-100, PerkinElmer) and 0.03% (v/v) Tween-20 (Riedel de Haen, Seelze, Germany). CD32bECDHis and CD32aECDHis were diluted to 0.5 μg/ml. […] Anti-6×His Europium3+ (PerkinElmer, Boston Mass.) was diluted to 0.15 μg/ml. […] After overnight incubation at 4° C. in the dark, fluorescence was measured using an EnVision 2101 Multilabel reader (PerkinElmer, Boston, Mass.) applying the following settings; Lance/Delfia dual mirror, emission filter 615-665 nm, excitation filter 320 nm, delay time 60 μs, window 100 μs, 100 flashes, 2000 μs per cycle and bidirectional row-by-row reading. Binding curves were analyzed using non-linear regression (sigmoidal dose-response with variable slope) using GraphPad Prism V4.03 software (GraphPad Software, San Diego, Calif., USA).
# biotinylated CD32bECDHis [11] = target: T1, biotinylated CD32bECDHis; assay: competition ELISA, competitor 016
# Experimental: as §1, §2
# biotinylated CD32bECDHis [12] = target: T1, biotinylated CD32bECDHis; assay: competition ELISA, competitor 034
# Experimental: as §1, §2
binder,measurement,setting,value
"Antibody 034 (antibody, human IgG1, V domains shown, Human antibody; also called HuMab 034) VH: EVQLLESGGGLVQPGGSLRLSCAASGFTFSNFVMSWVRQAPGKGLEWVSGISGSGGNTDHADSVKGRFTISRDNSKNTVYLQMNSLRAEDTAVYYCAKDSGGLFDYWGLGTLVTVSS VL: not shown",% residual binding,biotinylated CD32bECDHis [1],83%
same,% residual binding,biotinylated CD32bECDHis [2],75%
same,% residual binding,biotinylated CD32bECDHis [3],90%
same,% residual binding,biotinylated CD32bECDHis [4],63%
same,% residual binding,biotinylated CD32bECDHis [5],89%
same,% residual binding,biotinylated CD32bECDHis [6],98%
same,% residual binding,biotinylated CD32bECDHis [7],83%
same,% residual binding,biotinylated CD32bECDHis [8],56%
same,% residual binding,biotinylated CD32bECDHis [9],90%
same,EC50,[10],0.069 µM
same,IC50,CD32bECDHis,0.00045 µM
same,% residual binding,biotinylated CD32bECDHis [11],98%
same,% residual binding,biotinylated CD32bECDHis [12],23%
